# Experimental data taken from article PMC6832557, “An Enzyme- and Label-Free Fluorescence Aptasensor for Detection of Thrombin Based on Graphene Oxide and G-Quadruplex”.
# Target: thrombin (bovine (plasma), UniProt P00735;P00735 318-366;367-625)
# Assay: graphene oxide displacement fluorescence assay (NMM/G-quadruplex readout); graphene oxide, NMM; not given in the material (S incubated with GO for 30 min; NMM ex/em 399/610 nm)
# Details: protein: commercial; copies: 1;1; label: none (label-free; NMM as G4 reporter); G-quadruplex (Se part)
binder,measurement,value
AGTCCGTGGTAGGGCAGGTTGGGGTGACTGGGTAGGGCGGGTTGGG (structured_DNA) [S (thrombin aptamer Sa + G-quadruplex part Se)],binding result,binds
